According to publication PMC5588548 (2017):
One block for each binder: values may come before it.

Columns and labels:
Assay in all cases: inhibition of fluorescent peptide substrate cleavage, tight binding equation
MMP-1 catalytic domain = molecular target: T1, MMP-1 catalytic domain (Homo sapiens, UniProt P03956)
T1 chain: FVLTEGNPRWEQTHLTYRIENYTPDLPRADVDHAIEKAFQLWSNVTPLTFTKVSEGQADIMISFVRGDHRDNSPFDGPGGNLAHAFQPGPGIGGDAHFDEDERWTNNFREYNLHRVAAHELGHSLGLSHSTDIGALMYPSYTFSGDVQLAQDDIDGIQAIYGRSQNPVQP

[1] = molecular target: T2, ADAMTS-5 lacking the C-terminal thrombospondin domain (Homo sapiens, UniProt Q9UNA0)
T2 chain: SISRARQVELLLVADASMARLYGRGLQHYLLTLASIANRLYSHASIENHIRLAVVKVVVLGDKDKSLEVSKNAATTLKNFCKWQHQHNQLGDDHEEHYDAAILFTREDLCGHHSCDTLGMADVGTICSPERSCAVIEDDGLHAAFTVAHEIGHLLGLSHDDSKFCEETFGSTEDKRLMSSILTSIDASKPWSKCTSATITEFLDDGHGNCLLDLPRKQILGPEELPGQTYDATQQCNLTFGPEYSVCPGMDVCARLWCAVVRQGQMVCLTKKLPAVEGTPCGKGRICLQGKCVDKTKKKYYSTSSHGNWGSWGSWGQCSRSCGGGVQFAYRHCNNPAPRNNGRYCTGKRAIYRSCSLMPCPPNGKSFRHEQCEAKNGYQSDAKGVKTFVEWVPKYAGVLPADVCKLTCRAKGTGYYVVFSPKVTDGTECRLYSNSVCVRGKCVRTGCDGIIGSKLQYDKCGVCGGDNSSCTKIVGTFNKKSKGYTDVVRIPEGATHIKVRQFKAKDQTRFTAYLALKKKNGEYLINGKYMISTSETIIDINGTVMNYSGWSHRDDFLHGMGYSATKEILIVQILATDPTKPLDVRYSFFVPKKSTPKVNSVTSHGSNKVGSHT

MMP-3 catalytic domain = MMP-3 catalytic domain (Homo sapiens, UniProt P08254)
Chain of MMP-3 catalytic domain (P08254 100-272): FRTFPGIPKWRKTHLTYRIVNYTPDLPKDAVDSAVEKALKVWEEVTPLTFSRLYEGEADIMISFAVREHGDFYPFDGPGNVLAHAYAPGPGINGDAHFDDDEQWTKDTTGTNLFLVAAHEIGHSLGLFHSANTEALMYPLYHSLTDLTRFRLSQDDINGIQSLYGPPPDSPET

Ki (MMP-1 catalytic domain): 650 pM
Ki [1]: 1600 pM
Ki (MMP-3 catalytic domain): 760 pM
B1: TIMP-3 (protein)
chain: CTCSPSHPQDAFCNSDIVIRAKVVGKKLVKEGPFGTLVYTIKQMKMYRGFTKMPHVQYIHTEASESLCGLKLEVNKYQYLLTGRVYDGKMYTGLCNFVERWDQLTLSQRKGLNYRYHLGCNCKIKSCYYLPCFVTSKNECLWTDMLSNFGYPGYQSKHYACIRQKGGYCSWYRGWAPPDKSIINATDP
modifications: suramin (0.05 µg/ml)

Ki (MMP-1 catalytic domain): 660 pM
Ki [1]: 2030 pM
Ki (MMP-3 catalytic domain): 1140 pM
B2: TIMP-3 (protein)
chain: B1 chain
